Laboratory results taken from PMC4014319, “Structure of catabolite activator protein with cobalt(II) and sulfate” (Acta Crystallographica. Section F, Structural Biology …, 2014).

Target: the molecule itself
Test: crystal structure; hanging-drop vapor diffusion, 20°C, 0.01 M CoCl2.6H2O, 0.1 M MES pH 6.5, 2.5 M ammonium sulfate; sample 0.1 mM CAP dimer, 0.05 mM DNA duplex, 0.4 mM cyclic AMP (no DNA in the crystal); space group P2(1)2(1)2, one dimer in the asymmetric unit, 1.97 Å

B1: catabolite activator protein (CAP) (natural protein, Escherichia coli, UniProt P0ACJ8 1-210, looked up)
chain: MVLGKPQTDPTLEWFLSHCHIHKYPSKSTLIHQGEKAETLYYIVKGSVAVLIKDEEGKEMILSYLNQGDFIGELGLFEEGQERSAWVRAKTACEVAEISYKKFRQLIQVNPDILMRLSAQMARRLQVTSEKVGNLAFLDVTGRIAQTLLNLAKQPDAMTHPDGMQIKITRQEIGQIVGCSRETVGRILKMLEDQNLISAHGKTIVVYGTR
notes: crystallised with cobalt(II) and sulfate; also called cAMP–CAP
B1: binds.
